Test results as given in US20210253718A1, “FRIZZLED5 PROTEIN-BINDING AGENTS” (Modmab Therapeutics Corporation, priority 2016, published 2021).
Substitutions are numbered along the chain they refer to.

T1: FZD8 CRD (Homo sapiens, UniProt Q9H461)
T1 construct: K31-D155; GPI anchor signal (C); expressed in transfected cells; host or cells: CHO cells, lentiviral pLenti-puro
T1 sequence (Q9H461 31-155): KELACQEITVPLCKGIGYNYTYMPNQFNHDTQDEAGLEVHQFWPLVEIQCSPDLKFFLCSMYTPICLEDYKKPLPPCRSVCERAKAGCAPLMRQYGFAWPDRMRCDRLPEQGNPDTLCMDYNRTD

T2: FZD5 CRD (Homo sapiens, UniProt Q13467)
T2 construct: K29-T156; GPI anchor signal (C); expressed in transfected cells; host or cells: CHO cells, lentiviral pLenti-puro
T2 sequence (Q13467 29-156): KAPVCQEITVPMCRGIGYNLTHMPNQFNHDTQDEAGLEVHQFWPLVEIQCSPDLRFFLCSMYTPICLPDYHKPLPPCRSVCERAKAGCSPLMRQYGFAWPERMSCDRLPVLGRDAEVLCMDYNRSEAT

B1: Fab-2905: anti-FZD5 Fab with antibody variable region Fv-2905; CDR SEQ ID NOs: 35, 36, 44, 83, 120, 157 (antibody, V domains shown)
VH: EVQLVESGGGLVQPGGSLRLSCAASGFNLSYYYMHWVRQAPGKGLEWVASIYSSYSYTSYADSVKGRFTISADTSKNTAYLQMNSLRAEDTAVYYCARSGYALDYWGQGTLVTVSS
VL: DIQMTQSPSSLSASVGDRVTITCRASQSVSSAVAWYQQKPGKAPKLLIYSASSLYSGVPSRFSGSRSGTDFTLTISSLQPEDFATYYCQQSSWYYGYPFTFGQGTKVEIK
B2: Fab-2915: anti-FZD5 Fab with antibody variable region Fv-2915; CDR SEQ ID NOs: 35, 36, 54, 93, 130, 166 (antibody, V domains shown)
VH: EVQLVESGGGLVQPGGSLRLSCAASGFNIYYYSMHWVRQAPGKGLEWVASIYSSYGYTSYADSVKGRFTISADTSKNTAYLQMNSLRAEDTAVYYCARGYHYYPYYSGLDYWGQGTLVTVSS
VL: DIQMTQSPSSLSASVGDRVTITCRASQSVSSAVAWYQQKPGKAPKLLIYSASSLYSGVPSRFSGSRSGTDFTLTISSLQPEDFATYYCQQAYYHSLITFGQGTKVEIK
B3: Fab-2913: anti-FZD5 Fab with antibody variable region Fv-2913; CDR SEQ ID NOs: 35, 36, 52, 91, 128, 165 (antibody, V domains shown)
VH: EVQLVESGGGLVQPGGSLRLSCAASGFNISYSSIHWVRQAPGKGLEWVASIYPYSSSTSYADSVKGRFTISADTSKNTAYLQMNSLRAEDTAVYYCARYGYYGLDYWGQGTLVTVSS
VL: DIQMTQSPSSLSASVGDRVTITCRASQSVSSAVAWYQQKPGKAPKLLIYSASSLYSGVPSRFSGSRSGTDFTLTISSLQPEDFATYYCQQWGVSHYLFTFGQGTKVEIK
B4: Fab-2909: anti-FZD5 Fab with antibody variable region Fv-2909; CDR SEQ ID NOs: 35, 36, 48, 87, 124, 161 (antibody, V domains shown)
VH: EVQLVESGGGLVQPGGSLRLSCAASGFNISSSYMHWVRQAPGKGLEWVASISSSSGYTSYADSVKGRFTISADTSKNTAYLQMNSLRAEDTAVYYCARTVRGSKKPYFSGWAMDYWGQGTLVTVSS
VL: B3 VL with W91S, G92W, V93S, S94Y, F98I
B5: Fab-2907: anti-FZD5 Fab with antibody variable region Fv-2907; CDR SEQ ID NOs: 35, 36, 46, 85, 122, 159 (antibody, V domains shown)
VH: EVQLVESGGGLVQPGGSLRLSCAASGFNIYSSYMHWVRQAPGKGLEWVASISSYSGSTYYADSVKGRFTISADTSKNTAYLQMNSLRAEDTAVYYCARSSWGAYIVSYGFDYWGQGTLVTVSS
VL: B3 VL with W91V, V93Y, S94W, H95W, Y96G, F98I
B6: Fab-2925: anti-FZD5 Fab with antibody variable region Fv-2925; CDR SEQ ID NOs: 35, 36, 64, 102, 140, 172 (antibody, V domains shown)
VH: B3 VH with I29L, I34M, Y54S, S55Y, S56G, S59Y, Y102F
VL: B3 VL with W91A, G92W, S94Y, H95A, Y96S
B7: Fab-2928: anti-FZD5 Fab with antibody variable region Fv-2928; CDR SEQ ID NOs: 35, 36, 67, 105, 143, 175 (antibody, V domains shown)
VH: EVQLVESGGGLVQPGGSLRLSCAASGFNISYSSIHWVRQAPGKGLEWVASIYPSYSSTYYADSVKGRFTISADTSKNTAYLQMNSLRAEDTAVYYCARYYAMDYWGQGTLVTVSS
VL: DIQMTQSPSSLSASVGDRVTITCRASQSVSSAVAWYQQKPGKAPKLLIYSASSLYSGVPSRFSGSRSGTDFTLTISSLQPEDFATYYCQQAFYYPITFGQGTKVEIK
B8: Fab-2900: anti-FZD5 Fab with antibody variable region Fv-2900; CDR SEQ ID NOs: 35, 36, 39, 78, 115, 153 (antibody, V domains shown)
VH: EVQLVESGGGLVQPGGSLRLSCAASGFNLSSYYIHWVRQAPGKGLEWVASISSSSSSTSYADSVKGRFTISADTSKNTAYLQMNSLRAEDTAVYYCARGALDYWGQGTLVTVSS
VL: B3 VL with G92Y, V93S, S94G, H95S, Y96S

biological target: T1, FZD8 CRD; test: Flow cytometry of anti-FZD5 Fab binding to CHO cells overexpressing Frizzled CRD
Summary of the method: (§1)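 CHO lines each expressing a different human Frizzled CRD, myc-tagged and GPI-anchored at the surface, stained with 200 nM Fab, then Alexa Fluor 488 F(ab′)2 secondary. Dead cells excluded by viability dye; anti-c-Myc staining served as expression control. Binding read by flow cytometry.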

Row | Median fluorescence, Frizzled CRD overexpressed on CHO cells: FZD8 | Molecule
1 | 8.17 | B1
2 | 10.00 | B2
3 | 8.98 | B3
4 | 7.43 | B4
5 | 11.76 | B5
6 | 7.70 | B6
7 | 7.57 | B7

biological target: T2, FZD5 CRD; test: as above
Summary of the method: as §1

Row | Median fluorescence, Frizzled CRD overexpressed on CHO cells: FZD5 | Molecule
8 | 27.63 | B2
9 | 32.78 | B5

biological target: T3, FZD7 CRD (Homo sapiens, UniProt O75084); test: as above
T3 construct: D45-S169; GPI anchor signal (C); expressed in transfected cells; host or cells: CHO cells, lentiviral pLenti-puro
Summary of the method: as §1

Row | Median fluorescence, Frizzled CRD overexpressed on CHO cells: FZD7 | Molecule
10 | 3.43 | B1
11 | 8.98 | B8
12 | 2.62 | B5
13 | 24.14 | B6
